Results on six sequences are retold here after the supplement of paper PMC11246515.

This data set is described as follows: total protein half-life in vivo (active degradation + dilution); higher = more stable protein.
Setting [1] is: E. coli NCM3722 delta-clpP delta-lon delta-hslV, growth: N-lim chemostat, doubling time 6 h.
Setting [2] is: E. coli NCM3722 delta-clpP, growth: N-lim chemostat, doubling time 6 h.
The mark [3] stands for this setting: E. coli NCM3722 delta-hslV, growth: N-lim chemostat, doubling time 6 h.
Setting [4] is: E. coli NCM3722 delta-lon, growth: N-lim chemostat, doubling time 6 h.
The mark [5] stands for this setting: E. coli NCM3722 delta-smpB, growth: N-lim chemostat, doubling time 6 h.
The mark [6] stands for this setting: wild type E. coli NCM3722, growth: C-lim chemostat, doubling time 3 h.
Setting [7] is: wild type E. coli NCM3722, growth: C-lim chemostat, doubling time 6 h.
The mark [8] stands for this setting: wild type E. coli NCM3722, growth: C-lim chemostat, doubling time 12 h.
Setting [9] is: wild type E. coli NCM3722, growth: N-lim chemostat, doubling time 6 h.
The mark [10] stands for this setting: wild type E. coli NCM3722, growth: N-lim chemostat, doubling time 12 h.
The mark [11] stands for this setting: wild type E. coli NCM3722, growth: P-lim chemostat, doubling time 6 h.
Where [12] appears, read: wild type E. coli NCM3722, growth: P-lim chemostat, doubling time 12 h.

± gives the standard deviation of the averaged measurements.

Take “MINVLIIDDDAMVAELNRRYVAQIPGFQCCGTASTLEKAKEIIFNSDTPIDLILLDIYMQKENGLDLLPVLHNARCKSDVIVISSAADAATIKDSLHYGVVDYLIKPFQASRFEEALTGWRQKKMALEKHQYYDQAELDQLIHGSSSNEQDPRRLPKGLTPQTLRTLCQWIDAHQDYEFSTDELANEVNISRVSCRKYLIWLVNCHILFTSIHYGVTGRPVYRYRIQAEHYSLLKQYCQ [P0AD01]”: the “total protein half-life in vivo” value was found to be 5.41 ± 0.33 h under setting [1]; 2.86 h under setting [2]; 4.1 ± 0.41 h under setting [3]; 3.42 ± 0.16 h under setting [4]; 3.1 ± 0.27 h under setting [5]; 1.69 ± 0.17 h under setting [6]. The “total protein half-life in vivo” value under setting [7] turned out to be 3.27 ± 0.38 h; the “total protein half-life in vivo” value under setting [8] turned out to be 5.01 ± 0.094 h; the “total protein half-life in vivo” value under setting [9] came to 3.51 ± 0.13 h; the “total protein half-life in vivo” value under setting [10] was 5.76 ± 0.53 h; the “total protein half-life in vivo” value under setting [11] is 1.58 h; the “total protein half-life in vivo” value under setting [12] was found to be 3.84 ± 0.61 h.
As to “MNMFFRLTALAGLLAIAGQTFAVEDITRADQIPVLKEETQHATVSERVTSRFTRSHYRQFDLDQAFSAKIFDRYLNLLDYSHNVLLASDVEQFAKKKTELGDELRSGKLDVFYDLYNLAQKRRFERYQYALSVLEKPMDFTGNDTYNLDRSKAPWPKNEAELNALWDSKVKFDELSLKLTGKTDKEIRETLTRRYKFAIRRLAQTNSEDVFSLAMTAFAREIDPHTNYLSPRNTEQFNTEMSLSLEGIGAVLQMDDDYTVINSMVAGGPAAKSKAISVGDKIVGVGQTGKPMVDVIGWRLDDVVALIKGPKGSKVRLEILPAGKGTKTRTVTLTRERIRLEDRAVKMSVKTVGKEKVGVLDIPGFYVGLTDDVKVQLQKLEKQNVSSVIIDLRSNGGGALTEAVSLSGLFIPAGPIVQVRDNNGKVREDSDTDGQVFYKGPLVVLVDRFSASASEIFAAAMQDYGRALVVGEPTFGKGTVQQYRSLNRIYDQMLRPEWPALGSVQYTIQKFYRVNGGSTQRKGVTPDIIMPTGNEETETGEKFEDNALPWDSIDAATYVKSGDLTAFEPELLKEHNARIAKDPEFQNIMKDIARFNAMKDKRNIVSLNYAVREKENNEDDATRLARLNERFKREGKPELKKLDDLPKDYQEPDPYLDETVNIALDLAKLEKARPAEQPAPVK”, the “total protein half-life in vivo” value is, setting by setting: under setting [1], 6.08 ± 0.32 h; under setting [2], 6.08 ± 0.59 h; under setting [3], 6.0465 ± 0.0037 h; under setting [4], 6.36 ± 0.18 h; under setting [5], 5.95 ± 0.39 h; under setting [6], 2.99 ± 0.082 h. Also, the “total protein half-life in vivo” value is, setting by setting: under setting [7], 5.66 ± 0.27 h; under setting [8], 10.9 ± 1.1 h; under setting [9], 6.13 ± 0.35 h; under setting [10], 12.8 ± 0.28 h; under setting [11], 5.879 ± 0.052 h; under setting [12], 12.9 ± 1.3 h.
With “MSEQHAQGADAVVDLNNELKTRREKLANLREQGIAFPNDFRRDHTSDQLHAEFDGKENEELEALNIEVAVAGRMMTRRIMGKASFVTLQDVGGRIQLYVARDDLPEGVYNEQFKKWDLGDILGAKGKLFKTKTGELSIHCTELRLLTKALRPLPDKFHGLQDQEARYRQRYLDLISNDESRNTFKVRSQILSGIRQFMVNRGFMEVETPMMQVIPGGAAARPFITHHNALDLDMYLRIAPELYLKRLVVGGFERVFEINRNFRNEGISVRHNPEFTMMELYMAYADYKDLIELTESLFRTLAQDILGKTEVTYGDVTLDFGKPFEKLTMREAIKKYRPETDMADLDNFDSAKAIAESIGIHVEKSWGLGRIVTEIFEEVAEAHLIQPTFITEYPAEVSPLARRNDVNPEITDRFEFFIGGREIGNGFSELNDAEDQAQRFLDQVAAKDAGDDEAMFYDEDYVTALEHGLPPTAGLGIGIDRMVMLFTNSHTIRDVILFPAMRPVK [P0A8N3]”, the “total protein half-life in vivo” value stood at 5.76 ± 0.38 h under setting [1]; 5.45 ± 0.16 h under setting [2]; 5.23 ± 0.14 h under setting [3]; 5.58 ± 0.26 h under setting [4]; 5.19 ± 0.12 h under setting [5]; 3.07 ± 0.11 h under setting [6]. In addition, the “total protein half-life in vivo” value worked out at 5.894 ± 0.022 h under setting [7]; 10.3 ± 0.74 h under setting [8]; 4.98 ± 0.45 h under setting [9]; 8.8 ± 0.29 h under setting [10]; 5.67 ± 0.29 h under setting [11]; 10.6 ± 0.79 h under setting [12].
As for “MSYQPQTEAATSRFLNVEEAGKTLRIHFNDCGQGDETVVLLHGSGPGATGWANFSRNIDPLVEAGYRVILLDCPGWGKSDSVVNSGSRSDLNARILKSVVDQLDIAKIHLLGNSMGGHSSVAFTLKWPERVGKLVLMGGGTGGMSLFTPMPTEGIKRLNQLYRQPTIENLKLMMDIFVFDTSDLTDALFEARLNNMLSRRDHLENFVKSLEANPKQFPDFGPRLAEIKAQTLIVWGRNDRFVPMDAGLRLLSGIAGSELHIFRDCGHWAQWEHADAFNQLVLNFLARP”, the “total protein half-life in vivo” value is 5.3 ± 0.56 h under setting [1]; 2.05 ± 0.77 h under setting [2]; 2.34 ± 0.87 h under setting [3]; 2.71 h under setting [4]; 2.32 ± 0.21 h under setting [5]; 1.42 ± 0.3 h under setting [6]. Also, the “total protein half-life in vivo” value is 2.67 ± 0.065 h under setting [7]; 4.07 h under setting [8]; 1.93 h under setting [9]; 3.13 h under setting [10]; 3.21 h under setting [11]; 5.69 ± 1.3 h under setting [12].
Consider “MIKTTPHKIVILMGILLSPSVFATDINVEFTATVKATTCNITLTGNNVTNDGNNNYTLRIPKMGLDKIANKTTESQADFKLVASGCSSGISWIDTTLTGNASSSSPKLIIPQSGDSSSTTSNIGMGFKKRTTDDATFLKPNSAEKIRWSTDEMQPDKGLEMTVALRETDAGQGVPGNFRALATFNFIYQ”, for which the “total protein half-life in vivo” value under setting [8] is 10.5 h.
In the case of “MKSLRLMLCAMPLMLTGCSTMSSVNWSAANPWNWFGSSTKVSEQGVGELTASTPLQEQAIADALDGDYRLRSGMKTANGNVVRFFEVMKGDNVAMVINGDQGTISRIDVLDSDIPADTGVKIGTPFSDLYSKAFGNCQKADGDDNRAVECKAEGSQHISYQFSGEWRGPEGLMPSDDTLKNWKVSKIIWRR”, the “total protein half-life in vivo” value was 5.96 ± 0.15 h under setting [1]; 6.484 ± 0.023 h under setting [2]; 7.579 ± 0.065 h under setting [3]; 6.4 ± 0.55 h under setting [5]; 3.24 ± 0.74 h under setting [6]; 6.151 ± 0.0073 h under setting [7]. Besides, the “total protein half-life in vivo” value by setting is: under setting [8], 14.8 ± 0.17 h; under setting [9], 6.63 ± 0.47 h; under setting [11], 6.68 ± 0.71 h.
